Blank lines part the entries; values can stand above or below the molecule they belong to.
Legend:
[1] = molecular target: T1, hIL-6R (Homo sapiens, UniProt P08887); assay: IgG ELISA, binding to hIL-6R in the presence or absence of each small molecule, amino acid or amino acid metabolite
T1 sequence (P08887 20-355 limits assumed): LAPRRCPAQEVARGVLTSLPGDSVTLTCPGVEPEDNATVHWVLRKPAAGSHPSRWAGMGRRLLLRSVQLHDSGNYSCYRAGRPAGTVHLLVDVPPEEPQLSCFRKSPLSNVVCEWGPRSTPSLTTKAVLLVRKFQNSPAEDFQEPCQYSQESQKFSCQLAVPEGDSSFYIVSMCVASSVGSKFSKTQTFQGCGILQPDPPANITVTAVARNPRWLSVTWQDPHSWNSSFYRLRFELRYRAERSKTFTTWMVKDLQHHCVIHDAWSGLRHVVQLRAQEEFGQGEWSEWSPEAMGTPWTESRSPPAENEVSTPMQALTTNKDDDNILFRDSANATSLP
Experimental: Three types of antibodies obtained: 6RNMSC1-2_F02 and 6RNMSC1-3_G02, and GC413 were subjected to ELISA under the nine conditions described in Table 3. Meanwhile, each small molecule was appropriately prepared at the concentrations shown in Table 3 using the buffers indicated in Table 19. The antigen used was biotin-labeled hIL-6R.
First, a StreptaWell 96 microtiter plate (Roche) was coated at room temperature for one hour or more with 100 μl of PBS containing biotin-labeled hIL-6R. After washing with Wash buffer to remove unbound biotin-labeled hIL-6R from the plate, each well was blocked for one hour or more with 250 μl of Blocking Buffer. After Blocking Buffer was removed from each well, the purified IgGs were prepared to 2.5 μg/ml in Sample Buffer containing small molecules at the final concentrations shown in Table 3, and each was aliquoted at 100 μl into the plate. The plate was allowed to stand at room temperature for one hour to allow binding of each IgG to biotin-labeled hIL-6R in each well. After washing with Wash Buffer containing small molecules at the final concentrations shown in Table 3, an HRP-conjugated anti-human IgG antibody (BIOSOURCE) diluted with Sample Buffer containing the same small molecules was added to each well. The plate was incubated for one hour. Following wash with Wash Buffer containing each small molecule, the TMB single solution (ZYMED) was added to each well. The chromogenic reaction in the solution of each well was terminated by adding sulfuric acid. Then, the developed color was assessed by measuring absorbance at 450 nm.
6RNMSC1-2_F02 described in Example 14, which has antigen-binding activity in the presence of kynurenine, and negative control GC413 were subjected to ELISA under the seven conditions described in Table 18. Meanwhile, each small molecule was appropriately prepared at the concentrations shown in Table 18 using the buffers indicated in Table 4. The antigen used was biotin-labeled hIL-6R. ELISA was carried out using the method described in Example 11.

[2] = molecular target: T1, hIL-6R; assay: Phage ELISA, binding to hIL-6R in the presence or absence of SC; details: in the presence of SC
Experimental: Culture supernatants containing phages were collected according to a conventional method (Methods Mol. Biol. (2002) 178, 133-145) from single colonies of E. coli obtained as described in (14-2). Phages purified by the method described in (2-4) were subjected to ELISA by the following procedure. A StreptaWell 96 microtiter plate (Roche) was coated overnight with 100 μl of TBS containing biotin-labeled hIL-6R. After biotin-labeled hIL-6R was removed by washing each well of the plate with TBST, the wells were blocked with 250 μl of 2% skim milk/TBS for one hour or more. 2% skim milk/TBS was removed, and then the prepared, purified phages were added to each well. The plate was allowed to stand at room temperature for one hour to allow binding of antibody-displaying phages to biotin-labeled hIL-6R in each well in the presence or absence of SC. After washing with TBST or SC/TBST, an HRP-conjugated anti-M13 antibody (Amersham Pharmacia Biotech) diluted with TBS or SC/TBS was added to each well. The plate was incubated for one hour. Following wash with TBST or SC/TBST, the TMB single solution (ZYMED) was added to each well. The chromogenic reaction in the solution of each well was terminated by adding sulfuric acid. Then, the developed color was assessed by measuring absorbance at 450 nm.

[3] = molecular target: T2, human IL6 receptor (Homo sapiens, UniProt P08887); assay: Phage ELISA, binding to human IL6 receptor in the presence or absence of adenosine and/or ATP; details: with or without 10 mM adenosine and ATP
T2 sequence (P08887 20-357 limits assumed): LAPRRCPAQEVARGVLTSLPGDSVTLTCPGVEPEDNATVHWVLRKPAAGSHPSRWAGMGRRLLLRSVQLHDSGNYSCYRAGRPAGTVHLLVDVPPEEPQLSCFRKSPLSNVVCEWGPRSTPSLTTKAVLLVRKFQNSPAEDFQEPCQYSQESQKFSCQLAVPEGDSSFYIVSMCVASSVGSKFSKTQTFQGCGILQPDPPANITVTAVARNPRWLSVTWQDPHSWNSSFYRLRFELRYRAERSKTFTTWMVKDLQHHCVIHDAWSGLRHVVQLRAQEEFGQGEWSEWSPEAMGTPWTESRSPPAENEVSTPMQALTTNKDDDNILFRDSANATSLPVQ
Experimental: Phage-containing culture supernatants were collected according to a conventional method (Methods Mol. Biol. (2002) 178, 133-145) from single colonies of E. coli obtained by the method described above. The collected culture supernatants were treated by ultrafiltration using NucleoFast 96 (MACHERY-NAGEL). 100 μl of the culture supernatants were added to each well of NucleoFast 96, and it was centrifuged (4500 g for 45 minutes) to remove flow through. After addition of 100 μl of H2O, the NucleoFast 96 was washed by centrifugation (4500 g for 30 minutes). Finally, 100 μl of TBS was added, and the NucleoFast 96 was allowed to stand for five minutes at room temperature. A phage suspension was collected from the supernatant in each well of the NucleoFast 96.
The purified phages, to which TBS or (adenosine+ATP)/TBS was added, were subjected to ELISA by the following procedure. A StreptaWell 96 microtiter plate (Roche) was coated overnight with 100 μl of TBS containing biotin-labeled antigen. […] Then, the developed color was assessed by measuring absorbance at 450 nm. […]
First, a StreptaWell 96 microtiter plate (Roche) was coated at room temperature for one hour or more with 100 μl of TBS containing a biotin-labeled antigen. […] Then, the developed color was assessed by measuring absorbance at 450 nm (FIGS. 25, 26, and 27). […]

[4] = Competitive phage ELISA, inhibition of binding to biotin-labeled antigens by ATP; details: ATP from an equal amount up to 10000 times that of the antigen
Experimental: ATNLSA1-4_D12 and PF1 were each diluted with TBS and subjected to ELISA by the following procedure.
A StreptaWell 96 microtiter plate (Roche) was coated at room temperature for one hour with 100 μl of TBS containing biotin-labeled antigens (a mixture of 5′-adenosine-PEG-biotin and ATP-PEG-biotin). After the antigens were removed by washing each well of the plate with TBST, the wells were blocked with 250 μl of 2% skim milk/TBS for one hour or more. 2% skim milk/TBS was removed, and then the prepared, purified phages were added to each well. The plate was allowed to stand at room temperature for one hour to allow binding of the antibody-displaying phages to the antigens in each well. […] For the competition of the immobilized antigen with ATP, the plate was allowed to stand at room temperature for one hour. Then, after TBST wash, an HRP-conjugated anti-M13 antibody (Amersham Pharmacia Biotech) diluted with TBS was added to each well. The plate was incubated for one hour. Following TBST wash, the TMB single solution (ZYMED) was added to each well. The chromogenic reaction in the solution of each well was terminated by adding sulfuric acid. Then, the developed color was assessed by measuring absorbance at 450 nm.

B3: 6RRLSA1-6_045: clone with antigen-binding activity to human IL-6 receptor in the absence of ATP and adenosine (antibody, V domains shown)
VH: EVQLVESGGDLVKPGGGLRLSCAASGFTFSGYTMHWVRQAPGKGLEWVSSISSRSNHRSYADSVKGRFTISRDNAKNSLYLQMNSLRAEDTAVYYCARFGKRFDRNWVFDYWGQGTLVTVSS
VL: QSALTQPPSASGSPGQTVTISCTGTSTDVGTYNYVSWYQQHPGKAPKLMIYKTSKRPSGVPDRFSGSKSGNTASLTVSGLQAEDEADYFCSSRRYRRSLSFGGGTKLTVL
- antigen-binding activity to human IL-6 receptor in the absence of ATP and adenosine [3]: had an antigen-binding activity

B4: PF1: IL-6R-binding clone prepared as a negative control; SEQ ID NOs: 48 and 49 (antibody, V domains shown)
VH: QVQLQESGPGLVKPSETLSLTCAVSGYSISDDHAWSWVRQPPGEGLEWIGYISYSGITNYNPSLKGRVTISRDTSKNQFSLKLSSVTAADTAAYYCARVLARITAMDYWGEGTLVTVSS
VL: DIQMTQSPSSLSASVGDSVTITCQASQDISSYLNWYQQKPGKAPELLIYYGSELHSGVPSRFSGSGSGTDFTFTISSLEAEDAATYYCGQGNRLPYTFGQGTKVEIE
- antigen binding (negative control) [4]: not detected regardless of the ATP concentration

Other lines, results leading:

- absorbance under condition 1 compared to condition 8 ([1]; condition 1 (1 mM ATP-Na)): the same
- absorbance under condition 9 as compared to condition 8 ([1]; condition 9 (in the absence of small molecules) vs condition 8 (complete small molecule cocktail solution)): markedly lower
- absorbance under other conditions ([1]; remaining conditions of Table 3): markedly lower
- binding activity to hIL-6R in the presence of a small molecule cocktail (phage ELISA) [2]: have binding activity
B1: 6RNMSC1-3_G02: antibody that binds to hIL-6R in the presence of ATP; SEQ ID NOs: 88 and 89 (antibody, listed as Homo sapiens, V domains shown)
VH: EVQLVQSGGDLVKPGGSLRLSCAASGFTFSNYAMHWVRQAPGKGLEWVAVVSYDGSNKYYADSVKGRFTISRDNSKNTLYLQMNSLRAEDTAVYYCARLVPSSGYPGRFDPWGQGTLVTVSS
VL: NIQMTQSPSSLSASVGDRVTITCRASQSISSSLNWYQQIPGKAPKLLIYAASSLQSGVPSRFSGSGSGTDFTLTISSLQPEDFASYYCQQSYSAWTFGQGTKVEIK

- antigen-binding activity to human IL-6 receptor in the absence of ATP and adenosine [3]: had an antigen-binding activity
B2: 6RRLSA1-6_037: clone with antigen-binding activity to human IL-6 receptor in the absence of ATP and adenosine (antibody, V domains shown)
VH: EVQLVESGGDLVKPGGGLRLSCAASGFTFSTYTMHWVRQAPGKGLEWVSSISSRSGHRHYADSVKGRFTISRDNAKNSLYLQMNSLRAEDTAVYYCARYGKKGNRNWVFDYWGQGTLVTVSS
VL: QSALTQPPSASGSPGQTVTISCTGTSTDVGGYNYVSWYQQHPGKAPKLMIYSTSKRPSGVPDRFSGSKSGNTASLTVSGLQAEDEADYFCSTTTYAKNPVFGGGTKLTVL

From patent US11673947B2, “Target tissue-specific antigen-binding molecule” (Chugai Seiyaku Kabushiki Kaisha, priority 2012, dated 2023)
